Here are results for one molecule from paper doi:10.1101/2021.05.23.445342 (2021).

The assay has as its target Calcineurin (human PPP3CA / PPP3R1 heterodimer) (human, UniProt Q08209 1-521; P63098 1-170). Nature of the assay: SPR; apparent, steady-state fit. In general terms: In SPR one partner is held on a chip, and binding of the other changes the refractive index at the surface.

B1: Biotin-Cys-AKAP5c_(ILVF->SA) (domain or fragment)
chain: CVAEETKPKDTELSQESDFKENGITEEKSKSEESKRMEPIAIIITDTEISEFDVTKSKNVPKQASASAENEQVGVFANDNGFEDRTSEQYETASAETASSLVKNAAQSSAEQSANEMASDDNKINNLLQ
modifications: biotin (EZ-Link Maleimide-PEG2-Biotin) on the unique added N-terminal Cys
Take B1: the Kd was found to be 0.55 µM.
